Results taken from a protein production outcome set (Wang et al. 2014).

Experiment: label from the status in PepcDB records
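Further: failed if final PepcDB status was selected cloned or expressed and not failed if soluble or beyond.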

Sequence | protein production
MKKYIKPSAILLTLILSACSETKTVQQLISSGNSFVQVRDFSSAVIEFKNAVRLEPKNANARFELGNAYLEQGNFVNAEKEFSRAVELGLDFSNIAALMARVNTHLDKADEVYQLVERSDELTDDDYVEVLTYAGITALKQNRISQGQDYLTQAIVINPDAAYSRIAQAYVHYADREFSQGIVVISNLLNEKTDATEAMLIQGHLYYAQQEFEHASGAFALYLNYHPQDHKIRFFEVNSLIKAEKFEQANVITNTLLKAFKDSSLALQFKAQLEYQKKNYSAARDYAEEALQHGQDFLGAKIIAGVSSYFLGDVEQAYTKLNGIVERVPNNLLVKKILAVTKFELGYYADAAENFSSLEGLTSADLQLLKSSSASLMGIGYVDNALSLINKAEEFSPDNAQVAAQKGLMLLSQNDISGINSMKRAVELDPSLTYVQVALAIGYLNIGEENKAQKIADLYKDKIDEADVGHVLEGFIYLNNKQSANAQVSFEKALSLNPKNIASLYNLGLLHKRAAENSKAIIYFDRLIALSPEHKGALKSLVSIAVNKEYLEEVLTILVRNHQTDNLYSIIALAQVLRIDQQVAKAVTTLGGIDKSVKLTSNYFMLLGDSYLELEKYLKANAIFEQGLALEPKDYLLNIRYISTLEWLGDYTAALDQTRRLHKYYPNNINITTSLIYLEVRNKNYQEAKYLLEAIKGQKSNHHQLDAIAGEIYSYEKDYPQAIEHFSVVYEKEPTELNLLNLARTLGFDKQNKQAERLLELYLDKNPNNSKIRFLLAELYNPQDRKKRVVQYQVLSTQIPNNAIVFNNLAWNQFKLKQTAEALINIEKAYQLQPDSLAIQESYGVILIANNKLSQGINILESAILSGSTDAAAKEYLIKAKTLLNNQGKSSG | failed
MTDQLQHIRKPPRTGKAARSGTQDEIVYAHIFDAILEQRLAPGTKLSEEALGEIFGVSRTIIRRALSRLAHEQVVLLRPNRGAVVASPSIDEARQILFARRTVERAITELATDNATAERLAEL | failed
MVGPLGKPIKVKYYGNVVFASDAVCGQAENYATLKAMKEVGNYTISIQTFENAENVYPEEFLAKPVADEHYLTTEDGSVGIKGHYLDIVKELIEKDKVDIIFAGGKLGSLAKLAELTRPYGIPTYATVRQIMVDGLEHHHHHH | not failed
YVTSQIHAKGSDLAKLMQIAALKGNEEVLDVATGGGHVANAFAPFVKKVVAFDLTEDILKVARAFIEGNGHQQVEYVQGDAEQLPFTDERFHIVTCRIAAHHFPNPASFVSEAYRVLKKGGQLLLVDNSAPENDAFDVFYNYVEKERDYSHHRAWKKSDWLKMLEEAGFELEELHCFHKTFIFEDWCDRMNVTTEKKQELSDFIKSKPTEYYQKFKIVVEDGRVYSFRGESILMKARKPTVKNKGSS | not failed
MSATLKDYLNKRVVIIKVDGECLIASLNGFDKNTNLFITNVFNRISKEFICKAQLLRGSEIALVGLIDAENDDSLAPIDEKKVPMLKDTKNKIENEHVIWEKVYESKTK | failed
MDESAALRAFQDALRTQRPEFGQFFLARLLGLDISYPDGQCLIVFEPQDFLFNPQGSLHGGIIATVMDISMGHLLNHVQGAGLTLEMKTQYLKAVRQGTVYCRGEFLQRGRSVSFLKSTLTDAQGEPLAMATSTWKALSPARAPGVDAAAR | failed
MNEQPNNENITQSASRDLQIIEDDAFSYEGYQVVRGEFFAHTYEPSFTFNANKVSVNTACIKKLPQTDFVQILVNPDEKKLAVRPCQEDEKDSFRWCSATKKRSPRQITCRIFFAKVISLMEWNPSYRYKLLGKLIRSDNELLFVFDLTTPEIYVRAEKEDGKIKTSRTPTYPAEWQNQFGVPVEEHQSNLQINMFDGYAVFGILEHHHHHH | not failed
MQQRRPVRRALLSVSDKAGIVEFAQALSARGVELLSTGGTARLLAEKGLPVTEVSDYTGFPEMMDGRVKTLHPKVHGGILGRRGQDDAIMEEHQIQPIDMVVVNLYPFAQTVAREGCSLEDAVENIDIGGPTMVRSAAKNHKDVAIVVKSSDYDAIIKEMDDNEGSLTLATRFDLAIKAFEHTAAYDSMIANYFGSMVPAYHGESKEAAGRFPRTLNLNFIKKLDMRYGENSHQQAAFYIEENVKEASVATATQVQGKALSYNNIADTDAALECVKEFAEPACVIVKHANPCGVAIGNSILDAYDRAYKTDPTSAFGGIIAFNRELDAETAQAIISRQFVEVIIAPSASEEALKITAAKQNVRVLTCGQWGERVPGLDFKRVNGGLLVQDRDLGMVGAEELRVVTKRQPSEQELRDALFCWKVAKFVKSNAIVYAKNNMTIGIGAGQMSRVYSAKIAGIKAADEGLEVKGSSMASDAFFPFRDGIDAAAAAGVTCVIQPGGSIRDDEVIAAADEHGIAMLFTDMRHFRH | not failed
HVQLSLPVLQVRDVLVRGFGDSVEEALSEAREHLKNGTCGLVELEKGVLPQLEQPYVFIKRSDALSTNHGHKVVELVAEMDGIQYGRSGITLGVLVPHVGETPIAYRNVLLRKNG | not failed
MTEFPKILMVLGAVIFGIGLFMQVIGRLPGDIFVKKGNVTFFFPVVTCIVISIILSVVFSFFGRMK | failed
MSENNSNREPQKDVGKGNNSLMRWVGRLVLFAIILAITSFLTPGFSIRGFWTFVLASVVITGLDYLVESFMKVDASPFGKGLKGFIISAVIIYLAQFLVPNMRVSIIGAILASLVIGVIDAIIPSRSM | failed
MARIHQLDEHLSNMIAAGEVVERPSGIVKELVENSIDAKAKHIEIQILQGGIDCITIIDDGCGMDAQDATLAFERHATSKIQAVDDLWKISTMGFRGEALPSIASVSQVTLRTNDGIDSSEVIIYYGTLKSARPCGTPKGTMLEVRNLFQKTPARFKHLKSPQYEFSLISDVVQKFAISHPNIGFELSHDGRSVFKTKGNGNLREVLMQIYGRDGAKTAIELHGQDLDYTIRGYALQPQFQRATKYYVLLYINGRMIRNYHLQKAVMDAYAPYMPKDRYPIAVINMEMDAQLVDVNVHPSKWEIRLSKEKQLEKLLYQTIKAALMQDMEVPNIQARKENKKEKIEIQELQFTYPRDQEVKKLHTEVNDSFVHYNGKPKQTITEESKVQVDKVEPQEAPVEAEKQESVDKKQELSESQSSDTQAPIKDQVIEEVSTTKQAETLFKDIVPIQEVVMKAEQEPASESINPSLPQLHVIGQFHNSYILAEGEKGLYIIDQHAAQERYHYEMIQKQILSGVKDTQPLLIPITVETTISAVSRIDDLNALLEQVGIHFEVFGNTTLLCRELPIWLKDTKEEAFLQDMIDLWQKDDEISLDKLRKHTIATMACHSSIRFHRSLTMEEMKQVILDLGKCEQPFHCPHGRPTLICYEDKDLIHDFERG | failed
MQASENSHDDFLFIDDSDEDEILAFGSNETWQVLIVDDDPEIHSVTQLALSDLVVLGRRLEYLHAYSGKDACQLIENNDDIVLVLLDVVMETDDAGLNVVKYIRETLQRKDIRIVLRTGQPGYAPEESVIKEYDINDYKTKTELTRRKLVTTVFAAIRSFQQIATVNENRQGLEKIVSGATELSSQHSLPTFSQSVLSQLRTLISDDISAVFCARGQGIIDNIDDLSFYVLAQIGFDDSLLNQKIDTLQDNQANKQVKACFLQQKHQYLDDSLDLYVAKGDYRAVIHVRLSSPLTEIQTQLLNVFLTGVAVGYENVHLFQKLTNAAYRDWLTNLPNRLEFVRLLDSFAQNDCKNTVAALIDINHFSDINDALGQDIGNKLLSAVGQRIQSIGSDCQLARVGADVFGIIGPADCLTPESLIALFHQPFAAGEQHLPINACFGLCTKEHAQSSGVQVLNQINIALNIAKKNRLEHFAYYHSDIEDQMQWRLNMIRQLRNDFGNNCLELWYQPQLSLTTGKVIGAEALLRWRTADGKFVSPAVFIPLAEYSGLIIEIGDWVISQACKQLKVLEENFSDLSISVNVSIPQFRQDNFVDNIINTMTQYGIKPNKLELEITENILMDEPQIIIDALTKLKAQGISIALDDFGTGFSSLSYLQKLPLNRLKVDRAFVTDINKEGQSVIAETIINLGKKMQLKVIAEGIEEIEQQERLIELGCDEVQGFYYAKPMPADEFINFLHQQS | failed
MEVSHVTLEPNKDSRPAVLTIGKFDGVHLGHQTILNTALSIKKENEILTAISFSPHPLWALKQIEIYREMLTPRMEKERWLAHYGVDHLIETAFTPRYAETTPEEFVTDHLSNLQLSHIIVGSEFNFGKGRDSDVDLLRDLCKPYGIGVTSVPVIETNQTKISSTNIRAFIRRGHFLEAEQLLGHP | failed
MNLESITVVLPTRNEAGNIGAFLASLPQAVHLIVVDASEDETPDIIQRERPARTQVLRRRSTITQARQLGAEAALTDWLLFTDADIVFPDGYFDALERVMDAAVVYGPKLSRDRFAAYYRWFGYGQQCSHWLGIPAATGSNLLVRKDALIAVGGFDPALVCNEDSELVWRIKRAGYRIRFEPSLPVYARDHRRLDSGLWRKTCHSVFRCALLYWDLMPARWRGADWGYWSPQQSGRAPGVSRVELEHHHHHH | failed
MEDDVTTTERLPAPPLDTASKRVGFISLGCPKALVDSERILTQLRAEGYEVAPSYEGADAVIVNTCGFITPAVEESLSAIGEALDATGKVIVTGCLGERPEKIMERHPKVAAITGSEAVDDVMGHVRELLPIDQGAFTGLLPVAAPGMRAGVETPQRENTRHGDVFAPSVKLTPRHYAYVKVAEGCNHTCAFCIIPKLRGLQVSRDAGAVLYEAYRLIAGGTKELMIIAQDTSAYGVDLRYRESEFQGEQVRAHLTDLAVKLGEMGAWVRMHYVYPYPHVDRVVELMAQGKVLPYLDIPLQHASPKILKLMRRPGAGKQLDTIRRWREICPELVIRSTFIVGFPGETEEDFQELLQFLEDARLDRVGAFPYSDIEEADANALPGAVPEEVKQERLARFMEVAQRISTEKLSEKVGRVMDVIIDEFNDDEDDQPGTRLIGRTKGDAPGIDGQVYLYAGDFAGLVKIGDIVRARIEDSDEYDLFGEVIEKPEWKPNVPQLGHFGKH | failed
MNQRLDHYLKNTNQCETRSKAIDLIKRGRVFVNNFQVLKPSFLVKQTDSVEIKNDEMYFVSKGGYKLLKIIKEINLIIKNFVIADLGSSTGGFTDCCLQLGAKKIYAIDVGVDLLHPSLKKSYKIINYEKTNVKNLDKSYFLEDLDLIVGDLSFISLEQIFPIIKKISSPKTLLLLLIKPQFELGKDVASKYKGLIQNQKLQQLAINKIINLAKNYDFECKHLTPTDIFDEKKQNQEYMIFLQKHEK | failed
FNGWSWSLGGNIGFNKSKIGDLGFAPTDFGTLKNVRGYQGTSIGDHFGIANLFIAGEAPGLFFGYKTQGIIQPEDIVDGKVAYTAADGSTKYYSSSVANDLGAGNIKAVDMNEDGVVDEKDKTILGNPNPDFTYGFQTRIAWKDLSVSASFNGVHGNQILNTNIRYYTPSRQAGNLTQEAFRNIWTEENHSNLYPSATANVKNVVYDRYIEDGSYLRCSDITLNYTLPKSWMKKIGFQNIGVFASVKNAFVITNYSGYDPEINSFAFDGLRPGIDMNAFPSQRSYVFGLNVAF | failed
MKEQSYGKFAKFLHWVMALMIIVLIAVGTYMAGLDKADPNKMLLVGMHKSFGVIFMQFAILRVIWSRLNNSPKLPDVLASWEKLLSKTITGSLYLLMLAIPFSGYAMTNLFGYPVSLFGLIDLPVLFGKNTEMALLAKQAHFLLVYTLMAALFAHITGALKHRFLDKPEADVLPRMMPIKPRI | failed
MVSAPASASSSPASSSFQSFFWQAAARPRAEPKRQALKRITLMTTDKTSPYEIHDDRFRHLIVGNAELEELYSGCRWAEGPVWFADLNCLLFSDIPNERMLRWVPDGGISVFRQPSNFTNGNTRDRQGRLVSCEHGGRRVTRTEVDGSITVLADSYGGKRLNSPNDVVVKSDGSVWFTDPTYGILSDYEGYKAEPEQKTRNVYRLDPATGKIDIAIDDFVQPNGLAFSPDETKLYVADSSYSHDISRPRHIRVFDVVDGVRLANGREFCNLDNGLPDGFRLDTAGNLWTSAGDGVHCFAPDGRLIGKIKVPQTVANLTFGGPKKNRLFITATKSLYSVYVAATGAQTPLEHHHHHH | not failed
